# Patent US6774212 (Bristol-Myers Squibb, dated 2004)
# Square brackets hold non-standard residues; d marks the D form. Ends that are not written are not given here. * marks the point of attachment. boroAlg = alpha-aminoboronic acid analogue of L-2-amino-4-pentenoic acid (1-amino-3-butenylboronic acid, -B(OH)2 in place of -COOH), C=CC[C@H](N*)B(O)O
# Molecular target: T1, HCV NS3 protease catalytic domain (amino acids 1 to 192), genotype 1a (Hepatitis C virus, genotype 1a, UniProt P26664 1027-1218)
# T1 construct: domain: NS3 protease catalytic domain (amino acids 1 to 192); Expressed in E. coli BL21(DE3) and purified to >95%; also called HCV NS3 1a protease; Hepatitis C Virus NS3 protease
# T1 sequence (P26664 1027-1218): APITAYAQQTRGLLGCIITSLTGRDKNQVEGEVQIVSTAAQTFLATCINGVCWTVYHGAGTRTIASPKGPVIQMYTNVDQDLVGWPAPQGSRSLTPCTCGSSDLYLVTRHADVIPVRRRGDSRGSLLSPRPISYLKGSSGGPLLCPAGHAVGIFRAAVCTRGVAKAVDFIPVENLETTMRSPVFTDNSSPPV
# Assay: active-site titration of NS3 protease; linear plots of Activity vs. [inhibitor], protease concentration from the x-intercept
binder,measurement,value
H-DEVVP[boroAlg] (Peptide boronic acid used as titrant to determine the protease concentration) [H-Asp-Glu-Val-Val-Pro-boroAlg-OH],binding result,binds
